EC50 data for 10 molecules are collected here from patent publication US20190085323A1 (published 2019).

Residue numbers refer to the chain shown, from its start.

First the molecules themselves.
B1: 30CHS-12 IgG1 (antibody, V domains shown)
VH: EVQLVESGGGLVQPGGSLRLSCAASGFTISDYWIHWVRQAPGKGLEWVAGINPYYGVTVYADSVKGRFTISADTSKNTAYLQMNSLRAEDTAVYYCARGGVLDYWGQGTLVTVSS
VL: DIQMTQSPSSLSASVGDRVTITCKSNQNLLDSGNQGTFLNWYQQKPGKAPKLLIFGTSHLYSGVPSRFSGSGSGTDFTLTISSLQPEDFATYYCSQSTDLPFTFGQGTKVEIKR
B2: 30CHS-13 IgG1 (antibody, V domains shown)
VH: EVQLVESGGGLVQPGGSLRLSCKASGYTFGHYSMFWVRQAPGKGLEWVASIYPHYGHTYYADSVKGRFTISADTSKNTAYLQMNSLRAEDTAVYYCARGHWLDYWGQGTLVTVSS
VL: B1 VL with G36R, F38Y, F55Y, G56H, H59R, S97T, T98F, D99R, L100H, F102G
B3: 30CHS-41 IgG1 (antibody, V domains shown)
VH: B2 VH with G30T, Y32W, S33G, F35H, S50R, Y52N, H54Y, H57L, Y59H
VL: DIQMTQSPSSLSASVGDRVTITCKSNQNLLDSGHQRTYLNWYQQKPGKAPKLLIYHTSLLYSGVPSRFSGSGSGTDFTLTISSLQPEDFATYYCSQTFRHPGTFGQGTKVEIKR
B4: 31YCM#5 IgG1 (antibody, V domains shown)
VH: EVQLVESGGGLVQPGGSLRLSCKASGYTFGGSYMHWVRQAPGKGLEWVARIYPHYGYTYYADSVKGRFTISADTSKNTAYLQMNSLRAEDTAVYYCARGDDHFDYWGQGTLVTVSS
VL: DIQMTQSPSSLSASVGDRVTITCKSNQNLLDSHGWTYLHWYQQKPGKAPKLLIYDASNLYSGVPSRFSGSGSGTDFTLTISSLQPEDFATYYCSQSYRLPYTFGQGTKVEIKR
notes: also called 3 YCM #5
B5: 35CPT-9 IgG1 (antibody, V domains shown)
VH: EVQLVESGGGLVQPGGSLRLSCKASGYTFGDYGMHWVRQAPGKGLEWVAHIAPNDGITHYADSVKGRFTISADTSKNTAYLQMNSLRAEDTAVYYCARGYGWYDHVMDYWGQGTLVTVSS
VL: DIQMTQSPSSLSASVGGRVTITCKSNQNLLDSYGRTYLYWYQQKPGKAPKLLISGTSGLYSGVPSRFSGSGSGTDFTLTISSLQPEDFATYYCFQGYDYPFTFGQGTKVEIKR
B6: 2835-28 IgG1 (antibody, V domains shown)
VH: EVQLVESGGGLVQPGGSLRLSCKASGYTFTDGSMHWVRQAPGKGLEWVAYINPYFGDTYYADSVKGRFTISADTSKNTAYLQMNSLRAEDTAVYYCARGWIDYWGQGTLVTVSS
VL: DIQMTQSPSSLSASVGDRVTITCKSNQNLLLSNGRTFLYWYQQKPGKAPKLLIYGTSYLYSGVPSRFSGSGSGTDFTLTISSLQPEDFATYYCFQANHLPWTFGQGTKVEIKR
B7: 29TYL#10 IgG1 (antibody, V domains shown)
VH: B6 VH
VL: B6 VL
B8: 29TYL#1 IgG1 (antibody, V domains shown)
VH: B6 VH with T30S, D31T, Y50H, Y54H, D57L, Y59L, R98G, G99S, W100G, I101F
VL: B6 VL with R35W, Y39N, Y54S, G55R, T56I, Y58D, N97S, H98D, L99F, W101Y
B9: 35WYK-16 IgG1 (antibody, V domains shown)
VH: EVQLVESGGGLVQPGGSLRLSCKASGYTFGTSWMHWVRQAPGKGLEWVAGITPYYGLTFYADSVKGRFTISADTSKNTAYLQMNSLRAEDTAVYYCARGNLDYWGQGTLVTVSS
VL: B6 VL with G55D, T56V, Y58D, A96G, H98N, L99F, W101Y
B10: 35WYK-9 IgG1 (antibody, V domains shown)
VH: B9 VH with G30S, T31H, S32W, W33G, T52Y, Y55F, L57N, F59Y, N100L
VL: DIQMTQSPSSLSASVGDRVTITCKSNQNLLLSNGRTFLHWYQQKPGKAPKLLIFDVSNLYSGAPSRFSGSGSGTDFTLTISSLQPDDFATYYCSQTSRFPWTFGQGTKVEIKR

For this test, the target named is T1, HER2-ECD (recombinant extracellular domain of human epidermal growth factor receptor 2) (human, UniProt P04626 23-652).
T1 construct: extracellular domain; Recombinant HER2-ECD coated on ELISA plates
In words: ELISA, IgG1 titrated on immobilized HER2-ECD.
Turning to B1, the EC50 (usually the concentration giving half of the maximal effect) was 41 ng/mL.
Take B2: the EC50 amounted to 41 ng/mL.
The result for B3 reads 5 ng/mL.
The result for B4 reads 6.3 ng/mL; that for B5, 31.7 ng/mL.
The result for B6 reads 3.9 ng/mL.
With B7, the EC50 is 3.8 ng/mL.
The result for B8 reads 4.1 ng/mL; that for B9, 6.2 ng/mL.
The result for B10 reads 5.7 ng/mL.
